Here are results for one protein from PMC5374532, “Rational mutagenesis by engineering disulphide bonds improves Kluyveromyces lactis beta-galactosidase for high-temperature industrial applications” (Scientific Reports, 2017).

For orientation: stoichiometry N means a count of units in the complex or per binding partner.

This data set concerns the molecule itself. Description: AUC; sedimentation velocity, 0.2 mg/mL enzyme, 50 mM Tris-HCl, 150 mM NaCl, pH 7.4, 48 k rpm, c(s) distribution (SEDFIT); self-association, shares of monomer, dimer, trimer and tetramer.

B1: Kluyveromyces lactis β-galactosidase (enzyme, UniProt P00723 2-1025, looked up)
chain: SCLIPENLRNPKKVHENRLPTRAYYYDQDIFESLNGPWAFALFDAPLDAPDAKNLDWETAKKWSTISVPSHWELQEDWKYGKPIYTNVQYPIPIDIPNPPTVNPTGVYARTFELDSKSIESFEHRLRFEGVDNCYELYVNGQYVGFNKGSRNGAEFDIQKYVSEGENLVVVKVFKWSDSTYIEDQDQWWLSGIYRDVSLLKLPKKAHIEDVRVTTTFVDSQYQDAELSVKVDVQGSSYDHINFTLYEPEDGSKVYDASSLLNEENGNTTFSTKEFISFSTKKNEETAFKINVKAPEHWTAENPTLYKYQLDLIGSDGSVIQSIKHHVGFRQVELKDGNITVNGKDILFRGVNRHDHHPRFGRAVPLDFVVRDLILMKKFNINAVRNSHYPNHPKVYDLFDKLGFWVIDEADLETHGVQEPFNRHTNLEAEYPDTKNKLYDVNAHYLSDNPEYEVAYLDRASQLVLRDVNHPSIIIWSLGNEACYGRNHKAMYKLIKQLDPTRLVHYEGDLNALSADIFSFMYPTFEIMERWRKNHTDENGKFEKPLILCEYGHAMGNGPGSLKEYQELFYKEKFYQGGFIWEWANHGIEFEDVSTADGKLHKAYAYGGDFKEEVHDGVFIMDGLCNSEHNPTPGLVEYKKVIEPVHIKIAHGSVTITNKHDFITTDHLLFIDKDTGKTIDVPSLKPEESVTIPSDTTYVVAVLKDDAGVLKAGHEIAWGQAELPLKVPDFVTETAEKAAKINDGKRYVSVESSGLHFILDKLLGKIESLKVKGKEISSKFEGSSITFWRPPTNNDEPRDFKNWKKYNIDLMKQNIHGVSVEKGSNGSLAVVTVNSRISPVVFYYGFETVQKYTIFANKINLNTSMKLTGEYQPPDFPRVGYEFWLGDSYESFEWLGRGPGESYPDKKESQRFGLYDSKDVEEFVYDYPQENGNHTDTHFLNIKFEGAGKLSIFQKEKPFNFKISDEYGVDEAAHACDVKRYGRHYLRLDHAIHGVGSEACGPAVLDQYRLKAQDFNFEFDLAFE
notes: β-galactosidase of Kluyveromyces lactis, LAC4 gene (Gene ID 2897170), amplified from plasmid pLX8 and cloned in YEpFLAG; Monomer 118 kDa as printed; also called Kl-β-Gal; native Kl-β-Gal; not shown: FLAG, N-terminal, kept
For B1, the “stoichiometry N” value amounted to 2.
